First the molecules themselves.
B1: A352L1F8L5W (Fc fusion)
chain: HSQGTFTSDYSKYLDSQAAQDFVQWLLAGGPSSGAPPPSGGGGSGGGGSGGGGSAESKYGPPCPPCPAPEAAGGPSVFLFPPKPKDTLMISRTPEVTCVVVDVSQEDPEVQFNWYVDGVEVHNAKTKPREEQFASTYRVVSVLTVLHQDWLNGKEYKCKVSNKGLPSSIEKTISKAKGQPREPQVYTLPPSQEEMTKNQVSLTCLVKGFYPSDIAVEWESNGQPENNYKTTPPVLDSDGSFFLYSRLTVDKSRWQEGNVFSCSVMHEALHNHYTQKSLSLSLGGGGGAGGGGAGGGGAHPIPDSSPLLQFGGQVRQRYLYTDDAQQTEAHLEIREDGTVGGAADQSPESLLQLKALKPGVIQILGVKTSRFLCQRPDGALYGSLHFDPEACSFRELLLEDGYNVYQSEAHGLPLHLPGNKSPHRDPAPRGPARFLPLPGLPPALPEPPGILAPQPPDVGSSDPLSMVGPSQGRSPSYAS
B2: A352L1F8L5M1 (Fc fusion)
chain: B1 chain with L396R, P469G, A478E
B3: A382L1F8L5M1 (Fc fusion)
chain: B1 chain with A28D, L396R, P469G, A478E
B4: A137L1F8L5M3 (Fc fusion)
chain: YSEGTFTSDYSKYLDSQAAQDFVQWLLDGGPSSGAPPPSGGGGSGGGGSGGGGSAESKYGPPCPPCPAPEAAGGPSVFLFPPKPKDTLMISRTPEVTCVVVDVSQEDPEVQFNWYVDGVEVHNAKTKPREEQFASTYRVVSVLTVLHQDWLNGKEYKCKVSNKGLPSSIEKTISKAKGQPREPQVYTLPPSQEEMTKNQVSLTCLVKGFYPSDIAVEWESNGQPENNYKTTPPVLDSDGSFFLYSRLTVDKSRWQEGNVFSCSVMHEALHNHYTQKSLSLSLGGGGGAGGGGAGGGGADSSPLLQFGGQVRQRYLYTDDAQQTEAHLEIREDGTVGGAADQSPESLLQLKALKPGVIQILGVKTSRFLCQRPDGALYGSLHFDPEACSFRELLLEDGYNVYQSEAHGLPLHCPGNKSPHRDPAPRGPCRFLPLPGLPPALPEPPGILAPQPPDVGSSDPLAMVGPSQGRSPSYAS
B5: A175L1F8L5M3 (Fc fusion)
chain: B4 chain with D28A

Residue numbers refer to the chain shown, from its start.

For the first assay, the target named is β-klotho (KLB). In words: cell-based or functional assay.
In the case of B1, the “FGF21 activity (EC50, nM)” value came out at 0.55 nM.

For B2, the “FGF21 activity (EC50, nM)” value was 0.79 nM.

B3: the “FGF21 activity (EC50, nM)” value was determined as 0.79 nM.

As to B4, the “FGF21 activity (EC50, nM)” value was 0.82 nM.

On to B5, for which the “FGF21 activity (EC50, nM)” value stood at 0.63 nM.

For a further assay, the target named is GCGR. In words: cell-based or functional assay.
With B1, the “GCGR agonist activity (EC50, nM)” value turned out to be 1.22 nM.

Regarding B2, the “GCGR agonist activity (EC50, nM)” value was determined as 1.2 nM.

On to B3, for which the “GCGR agonist activity (EC50, nM)” value was 1.2 nM.

Regarding B4, the “GCGR agonist activity (EC50, nM)” value was 41.2 nM.

In the case of B5, the “GCGR agonist activity (EC50, nM)” value came to 39.2 nM.

Another assay concerns the target human GLP-1R (human, UniProt P43220 24-463). In words: cell-based or functional assay.
With B1, the “GLP-1R agonist activity (EC50, nM)” value is 1.34 nM.

As for B2, the “GLP-1R agonist activity (EC50, nM)” value turned out to be 1.13 nM.

For the molecule B3, the “GLP-1R agonist activity (EC50, nM)” value was 1.13 nM.

Turning to B4, the “GLP-1R agonist activity (EC50, nM)” value was 59.1 nM.

On to B5, for which the “GLP-1R agonist activity (EC50, nM)” value stood at 47.1 nM.
